Data taken from patent US20110136232A1 (MAYO FOUNDATION FOR MEDICAL EDUCATION AND RESEARCH, published 2011).

Experiments:
[1] = molecular target: T1, 3x HA-tagged FAK FERM domain (FAK residues R35-P362) (UniProt Q05397 35-362); experiment: Western blot of lysates of transfected SF767 cells
T1 construct: range 35-362
T1 sequence (looked up): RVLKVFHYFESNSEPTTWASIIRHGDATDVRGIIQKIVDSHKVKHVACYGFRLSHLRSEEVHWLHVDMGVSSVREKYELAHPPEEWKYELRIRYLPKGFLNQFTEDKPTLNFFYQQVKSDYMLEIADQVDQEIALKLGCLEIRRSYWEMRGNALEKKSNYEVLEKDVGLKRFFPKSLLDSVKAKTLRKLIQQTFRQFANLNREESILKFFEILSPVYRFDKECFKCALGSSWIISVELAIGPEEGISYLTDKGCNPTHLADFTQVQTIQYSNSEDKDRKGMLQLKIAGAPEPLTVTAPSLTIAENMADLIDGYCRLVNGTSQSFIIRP

Pyk2 FERM (FAKF3) = molecular target: T2, Pyk2 FERM (FAKF3) (UniProt Q14289 39-260; Q05397 254-362); experiment: Western blot of lysates of transfected SF767 cells
T2 construct: range 39-260;range 254-362; A chimera made by splice overlap extension PCR; The range 39-260 of Pyk2 is derived from the printed limits of the FERM domain (R39-A366) and the F3 module (D261-A366); also called Pyk2 FERM domain containing the FAK FERM F3 domain

[2] = molecular target: T3, HA-epitope tagged wild type FAK (UniProt Q05397 2-1052, limits assumed); experiment: Western blot of lysates of transfected SF767 cells
T3 construct: mature; also called full length FAK; tyrosine kinase FAK
T3 sequence (Q05397 2-1052 limits assumed): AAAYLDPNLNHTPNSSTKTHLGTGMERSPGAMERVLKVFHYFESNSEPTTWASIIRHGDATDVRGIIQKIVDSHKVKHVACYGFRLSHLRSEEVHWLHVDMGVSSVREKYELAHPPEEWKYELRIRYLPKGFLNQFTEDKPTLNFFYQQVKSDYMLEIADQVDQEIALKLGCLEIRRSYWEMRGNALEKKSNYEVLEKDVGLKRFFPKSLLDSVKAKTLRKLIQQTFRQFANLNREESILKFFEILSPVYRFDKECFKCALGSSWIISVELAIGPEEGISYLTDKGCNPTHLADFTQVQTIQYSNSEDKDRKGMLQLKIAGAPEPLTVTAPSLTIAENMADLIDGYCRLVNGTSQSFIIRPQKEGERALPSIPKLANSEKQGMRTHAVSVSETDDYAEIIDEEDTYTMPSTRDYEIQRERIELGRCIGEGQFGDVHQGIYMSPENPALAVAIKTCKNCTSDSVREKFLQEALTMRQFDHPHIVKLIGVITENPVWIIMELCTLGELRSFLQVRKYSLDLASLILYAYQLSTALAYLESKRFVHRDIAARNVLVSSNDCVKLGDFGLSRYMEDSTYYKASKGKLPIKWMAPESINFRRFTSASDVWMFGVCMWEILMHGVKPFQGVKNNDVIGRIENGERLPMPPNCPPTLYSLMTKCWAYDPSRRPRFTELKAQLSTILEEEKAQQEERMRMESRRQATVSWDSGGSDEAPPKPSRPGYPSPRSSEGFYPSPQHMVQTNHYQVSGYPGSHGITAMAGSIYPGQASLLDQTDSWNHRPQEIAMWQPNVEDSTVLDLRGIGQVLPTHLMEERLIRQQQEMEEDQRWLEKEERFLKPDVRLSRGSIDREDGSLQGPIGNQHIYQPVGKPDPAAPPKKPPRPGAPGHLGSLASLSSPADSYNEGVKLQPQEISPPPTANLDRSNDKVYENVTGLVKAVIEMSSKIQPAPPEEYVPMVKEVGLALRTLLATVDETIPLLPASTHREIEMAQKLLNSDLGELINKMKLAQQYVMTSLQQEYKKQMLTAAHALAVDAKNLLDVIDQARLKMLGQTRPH

FLAG tagged Pyk2 R306E = molecular target: T4, FLAG tagged Pyk2 R306E (UniProt Q14289 1-1009, limits assumed); experiment: anti-FLAG immunoprecipitation and 12A10 immunoblot
T4 construct: mature; also called Pyk2 with substitution of R306
T4 sequence (Q14289 whole entry R306E): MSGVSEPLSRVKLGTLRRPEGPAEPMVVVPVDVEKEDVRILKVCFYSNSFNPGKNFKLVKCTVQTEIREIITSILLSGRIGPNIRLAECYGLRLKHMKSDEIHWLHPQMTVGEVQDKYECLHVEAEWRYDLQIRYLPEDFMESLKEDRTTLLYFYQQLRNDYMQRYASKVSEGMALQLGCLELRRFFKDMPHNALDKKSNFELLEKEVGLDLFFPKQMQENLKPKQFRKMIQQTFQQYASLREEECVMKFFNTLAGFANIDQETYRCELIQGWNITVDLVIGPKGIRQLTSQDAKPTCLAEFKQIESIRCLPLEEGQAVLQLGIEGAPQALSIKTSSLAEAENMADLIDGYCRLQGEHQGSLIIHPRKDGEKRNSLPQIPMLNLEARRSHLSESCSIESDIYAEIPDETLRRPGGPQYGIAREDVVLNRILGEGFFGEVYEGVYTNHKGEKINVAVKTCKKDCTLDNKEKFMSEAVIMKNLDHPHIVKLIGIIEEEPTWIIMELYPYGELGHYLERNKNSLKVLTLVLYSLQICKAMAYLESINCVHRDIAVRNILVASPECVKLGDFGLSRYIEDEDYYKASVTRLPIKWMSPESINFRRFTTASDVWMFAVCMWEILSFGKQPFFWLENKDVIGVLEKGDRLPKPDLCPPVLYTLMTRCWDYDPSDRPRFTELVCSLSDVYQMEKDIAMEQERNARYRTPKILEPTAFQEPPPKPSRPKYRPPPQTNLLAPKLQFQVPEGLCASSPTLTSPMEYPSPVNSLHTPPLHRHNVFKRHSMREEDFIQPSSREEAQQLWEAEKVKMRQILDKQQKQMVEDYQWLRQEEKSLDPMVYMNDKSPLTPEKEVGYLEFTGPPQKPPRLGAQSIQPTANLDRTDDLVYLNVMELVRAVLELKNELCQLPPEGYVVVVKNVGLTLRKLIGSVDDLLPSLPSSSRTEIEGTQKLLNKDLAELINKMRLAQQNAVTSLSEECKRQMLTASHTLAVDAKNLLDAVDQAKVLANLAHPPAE
From the text: (§1) FIG. 2 (bottom panel) depicts a Western blot using anti-Pyk2 12A10 monoclonal antibody. SF767 cells were transfected with FLAG epitope tagged wild type (WT) Pyk2 or Pyk2 with the indicated amino acid substitution. Cells were lysed, Pyk2 was immunoprecipitated with anti-FLAG mAb, and immunoprecipitates immunoblotted with anti FLAG, anti-phosphotyrosine mAb pY20 or mAb 12A10. FIG. 2 (top) is a three dimensional model of the Pyk2 FERM with the locations of interacting residues, indicated by Arial font and non-interacting surfaces indicated by Times Roman font.
(§2) Immunoprecipitation of cleared lysates was performed as described elsewhere (Lipinski et al., Biochem. Biophys. Res. Commun., 349:939-947 (2006)). For immunoblotting, equal amounts of protein (10-20 μg) were electrophoresed on 8-16% gradient SDS-PAGE gels (Invitrogen, Carlsbad, Calif.) and transferred to nitrocellulose. Immunoblotting of transferred proteins was performed with the appropriate primary antibodies for 1 hour at room temperature and was visualized by enhanced chemiluminescence (Perkin Elmer Life Sciences, Boston, Mass.).

FLAG tagged Pyk2 Y135C = molecular target: T5, FLAG tagged Pyk2 Y135C (UniProt Q14289 1-1009, limits assumed); experiment: anti-FLAG immunoprecipitation and 12A10 immunoblot
T5 construct: mature; also called Pyk2 with substitution of Y135
T5 sequence (Q14289 whole entry Y135C): as the sequence (Q14289 whole entry R306E) above, with Y135C, E306R counted along it
From the text: as §1, §2

FLAG tagged Pyk2 W104A = molecular target: T6, FLAG tagged Pyk2 W104A (UniProt Q14289 1-1009, limits assumed); experiment: anti-FLAG immunoprecipitation and 12A10 immunoblot
T6 construct: mature; also called Pyk2 with substitution of W104
T6 sequence (Q14289 whole entry W104A): as the sequence (Q14289 whole entry R306E) above, with W104A, E306R counted along it
From the text: as §1, §2

FLAG tagged Pyk2 I308E = molecular target: T7, FLAG tagged Pyk2 I308E (UniProt Q14289 1-1009, limits assumed); experiment: anti-FLAG immunoprecipitation and 12A10 immunoblot
T7 construct: mature; also called Pyk2 with substitution of I308
T7 sequence (Q14289 whole entry I308E): as the sequence (Q14289 whole entry R306E) above, with E306R, I308E counted along it
From the text: as §1, §2

FLAG tagged Pyk2 D346A = molecular target: T8, FLAG tagged Pyk2 D346A (UniProt Q14289 1-1009, limits assumed); experiment: anti-FLAG immunoprecipitation and 12A10 immunoblot
T8 construct: mature; also called Pyk2 with substitution of D346
T8 sequence (Q14289 whole entry D346A): as the sequence (Q14289 whole entry R306E) above, with E306R, D346A counted along it
From the text: as §1, §2

Pyk2 FERM I308E variant = molecular target: T9, Pyk2 FERM I308E variant (UniProt Q14289 39-366); experiment: capture sandwich ELISA with hybridoma supernatant
T9 construct: domain: FERM domain; Printed once as '1308E' (a misprint of I308E); also called Pyk2 FERM variant 1308E
T9 sequence (Q14289 39-366 I308E): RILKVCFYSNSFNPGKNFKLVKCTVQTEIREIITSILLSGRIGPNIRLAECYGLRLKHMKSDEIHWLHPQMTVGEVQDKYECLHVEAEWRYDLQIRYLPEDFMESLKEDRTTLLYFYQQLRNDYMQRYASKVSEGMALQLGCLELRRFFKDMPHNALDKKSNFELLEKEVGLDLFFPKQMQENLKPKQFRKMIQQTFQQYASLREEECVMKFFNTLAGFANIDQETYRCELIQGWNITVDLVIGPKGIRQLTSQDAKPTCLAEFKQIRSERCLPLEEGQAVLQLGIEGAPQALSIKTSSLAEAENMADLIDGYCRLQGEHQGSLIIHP

binding result [1]: no binding | binding result (Pyk2 FERM (FAKF3)): no binding | binding result [2]: no binding | binding result (FLAG tagged Pyk2 R306E): no binding | binding result (FLAG tagged Pyk2 Y135C): binds | binding result (FLAG tagged Pyk2 W104A): binds | binding result (FLAG tagged Pyk2 I308E): no binding | binding result (FLAG tagged Pyk2 D346A): binds | binding result (Pyk2 FERM I308E variant): no binding
B1: mouse monoclonal antibody 12A10 (antibody, V domains shown)
VH: EVKLQESGPELKKPGETVKISCKASGYTFTDYSMHWVMQSPGKGLKWMGWINTETGEPRYVDDFKGRFAFSLETSASTAYLQIINLKNEDTATYFCARWDHGHGGFTYWGQGTLVTVSA
VL: DIVLTQTTASLAVSLGQRATMSCRATESVDSYGKSFMYWFQQRAGQPPKLLIYLASNLESVVPPRFSGSGSRTDFSLTIDPVEADDAATYYCQQNNEDPFTFGSGTKLEIK
notes: Mouse IgG1 from hybridoma 12A10, raised against the His-tagged Pyk2 F3 module (D261-A366); Used as hybridoma supernatant in the ELISA screen and as an antibody in the Western blots; also called mAb 12A10; anti-Pyk2 12A10 monoclonal antibody
